{"source": "paper PMC9305820", "key": {"[1]": {"molecular_target": "Transforming growth factor-β1 (TGF-β1) dimer (UniProt P01137)", "sequence (P01137 279-390)": "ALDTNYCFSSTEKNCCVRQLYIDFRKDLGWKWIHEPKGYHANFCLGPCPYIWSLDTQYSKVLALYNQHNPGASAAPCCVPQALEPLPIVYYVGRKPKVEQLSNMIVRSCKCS", "experiment": "dynamic light scattering"}, "[2]": {"molecular_target": "Transforming growth factor-β1 (TGF-β1) dimer (UniProt P01137)", "experiment": "negative-stain electron microscopy"}, "[3]": {"molecular_target": "Fluorescently labeled TGF-β1", "experiment": "MST"}}, "data": [{"substance": "Bintrafusp alfa (from UniProt P37173 23-166)", "values": [{"measurement": "stoichiometry N (BA per TGF-β1 dimer)", "setting": "[1]", "value": 1}, {"measurement": "stoichiometry N (TGF-β1 dimer per BA)", "setting": "[2]", "value": 1}, {"measurement": "Kd", "setting": "[3]", "value": 0.055, "unit": "nM"}]}]}
